Consider one substance from patent US20100316636A1.

In one test the target is hIL-6R-hFc (human) (UniProt P08887). Description: blocking immunoassay: 100 pM hIL-6R-hFc premixed with titrated antibody, free hIL-6R-hFc captured on coated hIL-6.
In test [1] the target is recombinant human IL-6R protein, monomeric form (human) (UniProt P08887). Description: SPR (BIAcore), captured antibody, monomeric hIL-6R injected. (In general: In SPR one partner is held on a chip, and binding of the other changes the refractive index at the surface.)
recombinant human IL-6R protein, monomeric form (human), sequence (P08887 20-358 limits assumed): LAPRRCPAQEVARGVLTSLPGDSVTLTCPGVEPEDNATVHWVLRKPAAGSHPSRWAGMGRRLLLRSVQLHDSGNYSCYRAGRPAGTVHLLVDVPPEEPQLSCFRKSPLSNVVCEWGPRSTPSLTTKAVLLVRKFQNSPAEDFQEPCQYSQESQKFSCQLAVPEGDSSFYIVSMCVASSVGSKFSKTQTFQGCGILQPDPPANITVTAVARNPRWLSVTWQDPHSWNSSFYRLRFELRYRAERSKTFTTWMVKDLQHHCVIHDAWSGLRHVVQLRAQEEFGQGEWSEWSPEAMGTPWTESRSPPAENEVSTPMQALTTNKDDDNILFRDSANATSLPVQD
In test [2] the target is human IL-6 receptor on hIL-6-responsive cells (XG-1 myeloma line, HepG2 hepatoma line) (human) (UniProt P08887). Briefly: cell-based or functional assay.
human IL-6 receptor on hIL-6-responsive cells (XG-1 myeloma line, HepG2 hepatoma line) (human), sequence (P08887 20-468): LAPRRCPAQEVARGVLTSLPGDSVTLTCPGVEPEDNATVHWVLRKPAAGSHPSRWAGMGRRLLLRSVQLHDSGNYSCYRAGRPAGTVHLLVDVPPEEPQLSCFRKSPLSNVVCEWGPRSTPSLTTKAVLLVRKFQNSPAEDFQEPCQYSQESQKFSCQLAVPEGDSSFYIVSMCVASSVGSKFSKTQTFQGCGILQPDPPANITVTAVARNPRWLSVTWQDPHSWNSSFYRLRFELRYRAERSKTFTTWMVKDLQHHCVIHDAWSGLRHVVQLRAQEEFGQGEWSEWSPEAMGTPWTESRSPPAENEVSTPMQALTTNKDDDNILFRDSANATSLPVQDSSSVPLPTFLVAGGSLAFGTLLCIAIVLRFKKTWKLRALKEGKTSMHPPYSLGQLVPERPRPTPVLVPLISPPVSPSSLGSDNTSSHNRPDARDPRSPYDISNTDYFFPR
In test [3] the target is recombinant human IL-6R protein, monomeric form (human) (UniProt P08887). Description: SPR (BIAcore), antibody captured on anti-mouse Fc, monomeric IL-6R 1.25-40 nM injected.
Test [4] deals with recombinant monkey monomeric IL-6R protein (Macaca fascicularis, extracellular domain) (Macaca fascicularis). The description is as above.
recombinant monkey monomeric IL-6R protein (Macaca fascicularis, extracellular domain) (Macaca fascicularis), sequence (P08887 other isoform, or with tags, fused parts or gaps): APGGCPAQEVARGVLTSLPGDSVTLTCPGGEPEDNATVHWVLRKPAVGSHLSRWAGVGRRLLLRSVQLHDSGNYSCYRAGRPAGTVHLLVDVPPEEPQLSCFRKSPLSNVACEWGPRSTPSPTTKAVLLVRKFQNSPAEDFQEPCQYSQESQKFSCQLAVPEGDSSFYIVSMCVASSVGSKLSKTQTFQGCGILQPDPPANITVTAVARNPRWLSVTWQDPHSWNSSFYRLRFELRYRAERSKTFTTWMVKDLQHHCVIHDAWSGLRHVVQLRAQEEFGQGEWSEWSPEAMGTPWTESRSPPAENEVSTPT
Test [5] has as its target recombinant human IL-6R protein, monomeric form (human) (UniProt P08887). Briefly: Kinexa solution-phase competition immunoassay, monomer.

pIC50, pKd: −log10 of the molar value.

hIL-6R-hFc (human), sequence (P08887 20-358): as the sequence (P08887 20-358 limits assumed) above

What is called pIC50 is the IC50 on a negative log10 scale, so that one unit is a factor of ten. One may read the pKd as the negative decadic logarithm of the Kd, by convention in mol/L. In turn, “control: humanized monoclonal antibody to human IL-6R (U.S. Pat. No. 5,817,790 SEQ ID NO:69 and 71)” had a pIC50 in the test with hIL-6R-hFc (human) of 8.66. Moreover, the negative logarithm of the Kd (pKd) is 8.75 in test [1], 9.02 in test [3], 8.93 in test [4] and 8.71 in test [5]. In test [2], this substance came in with a HepG2/Stat3 Luciferase activity IC50 of 0.854 nM. Besides, in test [2], the XG-1 cell proliferation Inhibition IC50 worked out at 1.5 nM.
